# “And” between values parts separate entries of the source, which are not always exact repeats. Equal entries are not always repeated.
# Target: the molecule itself
# Experiment: crystal structure; Act2 alone; hanging drop, 0.1 M sodium formate pH 7.0, 12% PEG 3,350, room temperature; space group P 41 21 2; two molecules in the asymmetric unit; tetramer from crystal packing
protein,measurement,value
"Syntrophomonas wolfei Göttingen Act2 (Swol_0675), acetyl-CoA acetyltransferase (enzyme, Act2, acetyl-CoA acetyltransferase encoded by the gene Swol_0675 of Syntrophomonas wolfei subsp. wolfei strain Göttingen; synthesized gene cloned into pMAPLe4; The asymmetric unit holds a homodimer; also called acetyl-CoA transferase; acyl-CoA transferase paralog; source: E. coli BL21-Gold (DE3), purified (NiNTA, TEV cleavage, Superdex 200 SEC); not shown: His6, N-terminal, cleaved) MAEINEVVVVGMARTPIGRYLGGLASVRANDLAIIAANAAIERAGVDPGIIDEIVGATCLHAGNGSLPPRIIGMKVGLPVRSGSCMVSQNCASGMRATEIACQNIMLGKTDISLVTAVESMSNIPYLLQQARSGYRMGDGKVQDAMLSDGLVCQLAGGHMGMTAENIAEKYGITREECDALALTSHQNAVKAVDEGIFDREIVPVVIKSKKGDKVISKDEHPIRGASLETMAKLPPAFKKGGVVTAANASGINDCAAAAVFMSKKKCEELGLKPLMKLVGICSEGVDAKVMGLGPAVAMPKVLKQAGWKYEDVDYWEVNEAFAAQVLGVVRMLKEEAGIELDFSKTNHNGSGIGLGHPVGATGLRIIVSMYYELERLGLTKGGASLCVGGGSAMASLWTRDI",stoichiometry N,2 and 4
